Experimental findings from patent US6900050 (ROCKEFELLER UNIVERSITY, dated 2005) are described below.

Assay [1] deals with T1, LexA DNA binding domain-TRAF1 fusion protein (bait plasmid pEG202-TRAF1) (UniProt P0A7C2 1-202; P39428 1-409).
T1 construct: also called LexA-TRAF1
T1 sequence (looked up): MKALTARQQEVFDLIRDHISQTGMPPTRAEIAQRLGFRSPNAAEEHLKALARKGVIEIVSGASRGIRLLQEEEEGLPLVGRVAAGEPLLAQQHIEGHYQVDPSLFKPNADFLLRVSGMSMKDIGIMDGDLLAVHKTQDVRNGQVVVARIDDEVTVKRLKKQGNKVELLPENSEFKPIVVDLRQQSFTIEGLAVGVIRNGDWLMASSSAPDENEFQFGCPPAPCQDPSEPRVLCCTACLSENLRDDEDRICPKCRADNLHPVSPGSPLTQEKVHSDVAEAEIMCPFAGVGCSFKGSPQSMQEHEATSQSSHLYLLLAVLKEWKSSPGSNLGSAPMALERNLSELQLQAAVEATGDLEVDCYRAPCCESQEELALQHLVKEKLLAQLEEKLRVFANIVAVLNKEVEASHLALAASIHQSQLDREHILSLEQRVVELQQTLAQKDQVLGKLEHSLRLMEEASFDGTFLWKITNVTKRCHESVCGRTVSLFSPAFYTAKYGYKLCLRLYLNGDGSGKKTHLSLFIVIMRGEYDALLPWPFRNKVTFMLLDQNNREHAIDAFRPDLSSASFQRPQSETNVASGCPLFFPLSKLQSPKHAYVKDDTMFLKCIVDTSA
Nature of the assay: yeast two-hybrid, b-gal activity. From the text:
(§1) The yeast two-hybrid assay was used to determine the structural requirements for the interaction of TRIP with TRAF1 or TRAF2. […] Expression vectors encoding wild type TRIP or the indicated deletion mutants of TRIP fused to the transcription activation domain were cotransformed into yeast with plasmids expressing LexA DNA binding domain-TRAF1 or -TRAF2 fusion proteins. Inter-actions between fusion proteins were scored by measuring b-gal activity of yeast transformants. The "+" indicates average b-gal activity of three independent yeast transformants was higher than 1000 Miller units; and the "−" indicates average b-gal activity of three independent yeast transformants was about 100 Miller units, which was similar to that of negative controls (bait plasmid alone).

Assay [2] addresses T2, LexA DNA binding domain-TRAF2 fusion protein (UniProt P0A7C2 1-202; P39429 1-501).
T2 construct: also called LexA-TRAF2
T2 sequence (looked up): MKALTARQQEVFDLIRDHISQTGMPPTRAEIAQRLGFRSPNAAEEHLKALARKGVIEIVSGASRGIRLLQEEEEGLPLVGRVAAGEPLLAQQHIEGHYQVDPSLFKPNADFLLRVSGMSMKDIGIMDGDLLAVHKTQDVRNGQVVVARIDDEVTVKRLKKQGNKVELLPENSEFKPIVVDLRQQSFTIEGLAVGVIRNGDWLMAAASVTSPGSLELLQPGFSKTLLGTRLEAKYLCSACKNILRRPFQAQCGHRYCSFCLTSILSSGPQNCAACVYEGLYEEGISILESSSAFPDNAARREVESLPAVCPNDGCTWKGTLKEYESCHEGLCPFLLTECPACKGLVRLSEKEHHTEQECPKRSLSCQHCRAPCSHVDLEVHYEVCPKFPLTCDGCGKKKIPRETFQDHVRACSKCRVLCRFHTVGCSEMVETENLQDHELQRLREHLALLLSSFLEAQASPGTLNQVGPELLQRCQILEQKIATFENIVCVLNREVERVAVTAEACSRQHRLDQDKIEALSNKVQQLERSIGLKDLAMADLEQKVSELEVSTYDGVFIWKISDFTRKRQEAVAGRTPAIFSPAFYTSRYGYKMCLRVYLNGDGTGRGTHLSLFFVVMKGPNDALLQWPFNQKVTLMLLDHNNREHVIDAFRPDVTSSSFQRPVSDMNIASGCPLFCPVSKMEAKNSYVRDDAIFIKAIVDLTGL
Nature of the assay: yeast two-hybrid, b-gal activity.
Source text: as §1

For assay [3], the target named is T3, GST alone (control) (UniProt P08515 1-218 = GST).
T3 construct: Control for the glutathione-Sepharose coprecipitations; also called GST proteins
T3 sequence (P08515 whole entry): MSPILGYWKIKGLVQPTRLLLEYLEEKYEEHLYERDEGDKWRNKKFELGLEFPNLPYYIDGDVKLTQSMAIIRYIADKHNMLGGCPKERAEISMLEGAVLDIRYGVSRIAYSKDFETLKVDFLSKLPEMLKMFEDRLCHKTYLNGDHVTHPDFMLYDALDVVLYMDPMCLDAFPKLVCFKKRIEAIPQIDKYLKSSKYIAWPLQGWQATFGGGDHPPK
In words: glutathione-Sepharose coprecipitation from 293 cells, Western blot (control). On the procedure:
Cell lysates were precipitated with glutathione-Sepharose beads, and analyzed by Western blot analysis with anti-TRAF1 or anti-TRAF2 antibodies. The 293 cells were transfected with various combinations of expression vectors and thirty-six hours after transfection, cells were harvested in phosphate-buffered saline/1 mM phenylmethylsulfonyl fluoride, pelleted, and lysed in lysis buffer (20 mM Hepes (pH 7.9), 100 mM KCl, 300 mM NaCl, 10 mM EDTA, 0.1% NP-40, plus protease inhibitors). After lysis, aliquots of cell lysates were incubated with glutathione-Sepharose (Pharmacia) for 2 hr at 4° C. […]
However, since the interaction of TRAFs with the cognate members of the TNFR superfamily is mediated through the TRAF-C domain rather than the entire TRAF domain, it was-important to determine whether TRIP can indirectly interact with the receptors through TRAFs. […] Cell lysates were precipitated with glutathione-Sepharose beads, and analyzed on Western blots with anti-HA, anti-TRAF1, and anti-TRAF2 antibodies. […]
Aliquots of cell lysates were subjected for purification with glutathione-Sepharose beads as described in Experimental Procedures. Proteins coprecipitated with GST-fusion proteins were analyzed by Western analysis with an anti-HA mAb (12CA5), and anti-TRAF1- or anti-TRAF2-polyclonal antibodies.

B1: mutant TRIP lacking the N-terminal RING finger and the coiled-coil domain (residues 275-470) fused to the transcription activation domain (other, not shown: large carriers)
chain: PGNLEPASATNETVSRLVFESPAPVEMMNPRLHQPPFGDEIDLNTTFDVNTPPTQTSGSQHCLPKKLCLERARSPMQNVLKKVHKVSKPESQLSLGGQRCVGELDEELAGAFPLFIRNAVLGQKQPNRTTAESRSSTDVVRIGFDGLGGRTKFIQPRDTTIIRPVPVKSKAKSKQKVRIKTVSSASQPKLDTFLCQ
For the molecule B1, the binding result in assay [1] and in assay [2] was “no binding” throughout.

B2: HA epitope tagged-TRIP expressed in 293 cells (other, not shown: small tags and cut ends)
chain: MPILSLCTICSDFFDHSRDVAAIHCGHTFHLQCLIQWFETAPSRTCPQCRIQVGKKTIINKLFFDLAQEEENVLDAEFLKNELDSVKAQLSQKDREKRDSQAIIDTLRDTLEERNATVESLQNALNKAEMLCSTLKKQMKFLEQRQDETKQAREEAHRLKCKMKTMEQIELLLQSQRSEVEEMIRDMGVGQSAVEQLAVYCVSLKKEYENLKEARKATGELADRLKKDLVSSRSKLKTLNTELDQAKLELRSAQKDLQSADQEITSLRKKSDDPPGNLEPASATNETVSRLVFESPAPVEMMNPRLHQPPFGDEIDLNTTFDVNTPPTQTSGSQHCLPKKLCLERARSPMQNVLKKVHKVSKPESQLSLGGQRCVGELDEELAGAFPLFIRNAVLGQKQPNRTTAESRSSTDVVRIGFDGLGGRTKFIQPRDTTIIRPVPVKSKAKSKQKVRIKTVSSASQPKLDTFLCQ
notes: also called HA-TRIP
As for B2, the binding result in assay [3] is reported as “no binding”.
